In publication PMC9321382:

Assays:
Test in all cases: EMSA
Details in all cases: EMSA: 5 nM pUC19, 30 min at room temperature, pH 7.0, 50 mM MOPS/50 mM NaCl (low) or 200 mM MOPS/200 mM NaCl (high); 1% agarose in TAE
[1] = test system: EncA encapsulin shell (Myxococcus xanthus)
[2] = test system: EncA encapsulin shell;EncC cargo protein (Myxococcus xanthus;Myxococcus xanthus)
[3] = test system: EncA encapsulin shell (Myxococcus xanthus); remark: listed apart in the source
[4] = test system: EncA encapsulin shell;EncC cargo protein (Myxococcus xanthus;Myxococcus xanthus); remark: listed apart in the source

## pUC19 supercoiled plasmid
[1]
  Kd: 300 nM
[2]
  Kd: 400 nM
[3]
  Kd: 300 nM
[4]
  Kd: 300 nM
